Data: the nanobody polyreactivity screen of Harvey et al. (2022)

Experiment: yeast display, Sf9 membrane polyspecificity reagent, FACS + sequencing; frameworks hold sequencing errors
Procedure, shortened: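 Galactose-induced (36–48 hours) yeast carrying a synthetic nanobody display library were exposed to 10% biotinylated, detergent-solubilized Sf9 membrane reagent at 4 °C for 1 hour. FACS followed streptavidin microbead enrichment, using low and high (top ~1%) gates for expression (anti-HA) and reagent binding (streptavidin). Colony PCR, MiSeq 2 × 250 sequencing and CDR-length filtering followed. Labels for polyreactivity reflect the gate of origin.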

Sequence	polyreactivity (PSR sort gate)
QVQLVESGGGLVQAGGSLRLSCAASGSTFYVNTMGWYRQAPGKERELVAAISGSGGSTYYADSVKGRFTISRDNAKNTVYLQMNSLKPEDTAVHYCAARSRYGYITFDYWGQGTQVTVSS	high polyreactivity
QVQLVESGGGLVQAGGSLRLSCAASGFTFHYYTMGWYRQAPGKERELVASINYSGGRTYYADSVKGRFTISRDNAKNTVYLQMNSLKPEDTAVYYCNARYKSTYYYWGLGTQVTVSS	high polyreactivity
QVQLVESGGGLVQAGGSLRLSCAASGSILGSNAMGWYRQPPGKESEFVAAITTITGSTYYADSVKGRFTISRDNAKNTVYLEMNSLKPEDTAVYYCNADAHESTDYTLYFSGPYYYWGQGTQVTVSS	low polyreactivity
QVQLVESGGGLVQAGGSLRLSCAASGSIFTENDMGWYRQAPGKEREMVAAIDWDGGRTYYADSVKGRFTISRDNAKNTVYLQMNSLKPEDTAVYYCNKGRYWSNYFYWPSTHVYWGQGTQVTVSS	high polyreactivity
QVQLVESGGGLVQAGGSLRLSCAASGYIFYHNTMGWYRQEPGKERELVAAITIGGRTYYADSVKGRFTISRDNAKNTVYLQMNSLKPEDTAVYYCATASYRNPSDYWGQGTQVSVSS	high polyreactivity
QVQLLESGGGIVQAGGSLRLSCGASGSTFTLNAMGWYRQAPGTEREFVADISWSSGRTYYADSVKGRFTISRDNAKNTVYVQMNSLKQEDTAVYYCATDDFWNVKFYAYYPEFDYWGQGTQVNVSS	low polyreactivity
QVQLVESGGGLVQAGGSLRLSCAASGRIFYYYAMGGYRQAPWKERELVATISRAGITNYADSVKGRFTISRANAKNTVYLQMNSLKPEDTAVYYCAATFYPWRYHYEYWGQGTQVTVSS	high polyreactivity
QVQLVESGGGLVQAGGSLRLSCAASGSTLSKYGMGWYRQAPGKERDLVAAISYSSGSTYYADSVKGRFTISRDNAKNTVYLEMNSLKPEDTAVDYCAADRFRSLHYWTYDYWGQGTQVTVSS	high polyreactivity
QVQLVESGGGLVHAGGSLSLSCAASGSIFPGYAMGWYRQAPGKERELVAGITWSDARTYYADSVKGRFTISRDNAKNTVYLQMNSLKPEDTAVYYCAADYYYYERDYWGKGTQVTVSS	low polyreactivity
QVQLVESGGGLVQAGGSLRLSCAASGFTINGNAMGWYRQAPGKERELVAAITWRGGSTYYADSVKGRFTISRDNAKNTVYLQMNSLKPEDTAVYYCNVEGWYDYDYWGQGTQVTVSS	high polyreactivity
QVQLVESGGGLVQAGGSLRLSCAASGFTFRYYAMGWYRQAPGKERELVASISWSSGSTHYADSVKGRFTISRDNAKNTVYLQMNSLKPEDTAVYYCNARHRTSSMHYWGQGTQVTVSS	high polyreactivity
QVQLVESGVGLVQAGGSLRLSCAASGSTFAKYAMGWYRQAPGKERELVASIRLSGGSTYYADSVKGRFTISRDNAKNTVYLQMNSLKPEDTAVYYCAADVIVFYYAPNYWGDIEYGYWGQGTQVTVSS	low polyreactivity
QVQLVESGGGLVQAGGSLRLSCAASGRIFSKYAMGWYRQAPGKDRELVAAISWSGGRTYYADSVKGRFTISRDNAKNTVYLQMNSLKPEDAALYYCAASFYTGYDYWGQGTQVTVSS	high polyreactivity
QVQLVQSGGGLVQAGGSLRLSCAASGRIIGWYAMGWYRQAPGKERELVAAITWSGTSTYYADSVKGRFTISRDNAKNTVYLQMNSLKPEDTAVYYCAADSLPASAPTYYTTLESWGQGTQVTVSS	low polyreactivity
QVQLVESGGGLVQAGGSLRLSCAASGSIFRFYVMGWYRQAPGKERELVAAISIGGSTNYADSVKGRFTISRDNAKNTVFLQMNSLKPEDTAVYYCAADYWYGAGMPHGTEFDYWGQGTQVTVSS	low polyreactivity
QVQLVESGGGLVQAGGSLRLSCAASGFTFDQYAMGRNRQAPGKERELVAVISSGGSTYYADSVKGRFTFSRDNAKNTVYLQMNSLKQEDTAVYYCNRDRQRRYDYWGQGTQVTLSS	high polyreactivity
QVQLVESGGGLVQAGGSLRLSCAASGRTFKNYAMGWYRQAPGKERELVAAITSGGITNYADSVKGRFTISRDNAKNTVYLQMNSLKPEDTAVYYCNTRRGWRDFDYWGQGTQVTVSS	low polyreactivity
QVQLVESGGGLVQAGGSLRLSCAASGRIFKYYAMGWYRQAPGKERELVSTISRGGGSTFYADSVKGRFTISRDNAKNTVYLQMNSLKPEDTAVYYCAVDVTFKRWYSTASSTHDYWGQGTQVTVSS	high polyreactivity
QVQLVESGGGLVQAGGSLRLSCAASGFTFFDNAMGWYRQAPGKERELVAAITWSDGSTYYADSVKGRFTISRDNAKNTVYLQMNSLKAEDTAVYYCAVGFISYSYSNYYDVWYEYYYWGQGTQVTVSS	low polyreactivity
QLQLVESGGGLVQAGGSLRLSCAASGSTFRNNAMGWYRQAPGKERELVAAISRGGGSTYYADSVKWRFTISRDNAKNTVYLQMNSLKPDDTAVYYCARRPTGIYDYWGQGTQVTVSS	high polyreactivity
QFQLVESGGGLVQAGGSLRLSCAASGNILPAYAMGLYRQAPGKERELVAAISKSGGRTYYADSVKGRFTISLDNAKNTVYLQMNSLKPEDTAVYYALLTVLRAVPYTVRYDYWGQGTQVNVSS	high polyreactivity
QVQLVESGVGLVQAGGSLRLSCAASGSTFDDYAMGWYRQAPGKERELVAAINKTGGSTNYADSVKGRFTISRDNAKNTVYLQMNSLKPEDNAVYYCAADGSNYSASVAAFPYRVDYWGQGTQVTVSS	low polyreactivity

Sequence	polyreactivity (PSR sort gate)
QVQLLETGGGLVQAGRSLRLSCAASGFIFRANAMGWYRQAPGNERELVATISRSGGSTSYADSVKGRFTISRDNAKNTVYLQMNSLKPEDTAVYYCNKRTPYLRPILDYWGQGSQVTVSS	high polyreactivity
QVQLVESGGGLVQAGGSLRLSCAASGSISYYNAMGWYRQAPGKERELVATITDSGGSTYYADSVKGRFTISRDNAKNTVYLQLNSLKPEDTAVYYCAVDYSEWYSIYDYWGQGTQVTVSS	low polyreactivity
QDQLVESGGGIVQEGGSLRLSCAASGLIFRVYAMGWYRQAPGKEWELVATITRGGRTYYADSVKGRFTISRDNAKNTVYLQMNSLKPEDTAVSYCAVLSVRRSYNYWGQGTQVTVSS	high polyreactivity
QVQLVESGGGLFQAGGSLRLSCAASGSTFGWYGMGWYRHAPGKERELVAAISLSDGGTYYADSVKGRFTISRDNAKNTVYLQMNSLKPEDTAVYYCAADYYDSGWYGYWGQGTQVTVSS	high polyreactivity
QVQLVESGGGLVQAGGSLRLSCAASGSTFKVYAMRWYRQAPGKERELVARISTRVGSTYYADSVKGRFTISRDNAKNSVYLQMNSLKAEDSAVYYCNARWWDPPYYYWGQGTQVTVSS	high polyreactivity
QVQLVESGGGLVQAGGSLRLSCAASGRIFGGNAMGWYRQAPAKERELVAAISKRGGSTYYADSVKGRFTISRDNAKNTVYLQMNSLKPEDTAVDYCAATAYADQGLDYGYWGQGTQVTVSS	high polyreactivity
QVQLVESGGGLVQAGGSLRLSCAASGLIFRTNAMGGYRQAPGKERELVAAISWSTGTTYYADSVKGRFTISRDIAKNTVYFQMNSVNPEDTAVSYCARTLRWTYRYGYWGQGTQVTVSS	high polyreactivity
QVQLVESGGGLVQAGGSLRLSCAASGRIFPWYTMGWYRQAPGKERELVAAITSGGNTDYADSVKGRFTISRDNAKNTVYLQMNSLKPEDTAVYYCAAGGYPGTTYYGYDYWGQGTQVTVSS	low polyreactivity
QVQLVESGGGLVQAGGSLRLSCAASGSIFQYYGMGWYRQAPGKERELVASISRSGGSTYYADSVKGRFTISRDNAKNTVYLQMNSLKPEDTAVYYCNKRTYRQLSSWDYTYYYWGQGTQVTVSS	low polyreactivity
QVQLVESGGGLVQAGGSLRLSCAASGSIFQSNAMGWDRQAPGKERELVAAISSSGVRTYYADSVKGRFTISRDNAKNTVYLQMNSLKPEDTAVYYCATGWYYAGGPTYEYYYWGQGTQVTVSS	low polyreactivity
QVQRVESGGGLVQAGGSLRLSCAASGSTFNRNALGWYRPEPGKERELVAAISWRGDSTSYADSVKGRFTITRDNAKNTVYLQMNSLKPEDTAVYNCASAHAYAFYRYWYVPSEYNYWGQGTQVTVSS	low polyreactivity
QVQLVESGGGLVQAGCSLRLSSAASGFIYYRYAMGWYRQAHGKERELVAAISRSGGSTYYADSVKGRFTISRDNAKNTVYVQMNRLKPEDTAVYYCAADSGSLAPGNDYWGQGTQVTVSS	high polyreactivity
QVQLVESGVGLVQAGGSLRLSCAASGSISDVYAMGVYRQAPGKERDLVAAITSGASTYYADSVKGRFTISLDNAKNTVYLQINSLKPEDTAVYYCSAGYSDWYYAAYNSWGQGTQVTVST	low polyreactivity
QVQLVESGGGLVQAGGSLRLSCAASGRTYRYNAMGWYRQAPGKERELVATITRTGSTDYADSVKGRFTISRDNAKNTVYLQMNSLKPEDTAVYYCNARGVYSGRTYYYIYDYWGQGTQVTVSS	high polyreactivity
QVQLVESGGGLVQAGGSLRLSCAASGFTFTPYAMGWYRQAPGKERELVAAITWRGGTYYADSVKGRFTISRDNAKNTVYLQMNSLKPEDTAVYYCAARVWRLYPSTYDYWGQGTQVTVSS	high polyreactivity
QVQHVESGGGLVQAGGSLRLSCAASGFTFLKNAMGWYRQAPGKERELVAAITSSGGRTYYADSVKGRFTISRDNAKNTVYCQMISLKPEDTAVYYCNKGPLPGYDYWGQGTQVTVSS	high polyreactivity
QVQLVESGGGLVQAGGSLRLSCAASGFILYYYALGWYRQAPGKEWEIVAAISRNGGRTYYADSVKGRFTISRDNAKNTVYLQMISLKPEDTAVDYCNKGVSRTLSSAYEYWGQGTQVTVSS	high polyreactivity
QVQLVESVGGLVQAGGSLRLSCAASGINFGFNTMGWYRQAPGKERELVAAINGSDGSTYADSVKGRFTISRDNAKNTVYLQMNSLKPEDTAVYYCAADAYDGEGTYPFEYWGQGTQVTVSS	low polyreactivity
QVQLVESGGGLVQAGGSLRLSCAASGFISKYYAMVWYRQAPGKERELVAAITRSGTSTYYADSVKGRFTISRDNAKNTVYLQMNSLTPEDTAVYYCAAVSGGRTPRYYYWGQGTQVTVSS	high polyreactivity
QDQLGESGGGLVQAGGSLRLICAASGRIFVSNTMGCYRQAPGKERELVATISRRGGITYYADSVKGRFTISRDNAKNTVYLQMNSLKPEDTAVYYCAAESYSFWLYDYCGQGTQVTVSS	high polyreactivity
QVQLVESGGGLFQAGGSLRLSCAPSGFTFSWYDMGWYRQAPGKERELVAAISLSGDRTYYADSVKGRFTISRDNAKNTVYLQMNSLKPEDTAVYYCAADERVDQCWIRMDYWGQGTQVTVSS	low polyreactivity
